The record followed here is publication PMC3700227.

The assay deals with Cladosporium fulvum LysM effector Ecp6 (extracellular protein 6), produced in Pichia pastoris (Cladosporium fulvum) (UniProt B3VBK9). The experiment in a line: SEC. (SEC sorts molecules by how far they enter the pores of the column.)

One may read the stoichiometry N as a count of units in the complex or per binding partner. “Cladosporium fulvum LysM effector Ecp6 (extracellular protein 6), produced in Pichia pastoris (from UniProt B3VBK9) (natural protein)” returned a stoichiometry N of 2.
